Measurements taken from the supplement of paper PMC9112550, “Optimization of the antimicrobial peptide Bac7 by deep mutational scanning” (BMC Biology, 2022).

Tested on: Escherichia coli TOP10
Assay: shrunken log2 fold change of peptide-encoding DNA abundance (4.5 h post-induction vs induction); higher = less antimicrobial activity (less host growth inhibition)
Conditions: time post-induction: 4.5 h; library: site-saturation at positions 5, 18, 19, 20
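Note: peptides expressed intracellularly from a pBAD plasmid library in pooled LB shake-flask culture, induced with 0.3% L-arabinose, DNA abundance read by NGS, three biological replicates, DESeq2 with apeglm shrinkage.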

Sequence	shrunken log2 fold change
RRIRCRPPRLPRPRPRPVFSPRP	-0.385
RRIRFRPPRLPRPRPRPHGGPRP	0.0953
RRIRHRPPRLPRPRPRPGGEPRP	0.183
RRIRIRPPRLPRPRPRPCFGPRP	-0.415
RRIRMRPPRLPRPRPRPLNWPRP	0.225
RRIRERPPRLPRPRPRPQVHPRP	-0.445
RRIRHRPPRLPRPRPRPRGGPRP	0.504
RRIRQRPPRLPRPRPRPILTPRP	-0.955
RRIRPRPPRLPRPRPRPWECPRP	-0.0846
RRIRERPPRLPRPRPRPEFQPRP	-0.0353
RRIRFRPPRLPRPRPRPGCGPRP	0.748
RRIRRRPPRLPRPRPRPGTAPRP	0.414
RRIRRRPPRLPRPRPRPCFIPRP	-0.127
RRIRTRPPRLPRPRPRPYNSPRP	-0.00162
RRIRKRPPRLPRPRPRPSDWPRP	0.288
RRIRHRPPRLPRPRPRPHYQPRP	0.0121
RRIRHRPPRLPRPRPRPKMYPRP	-0.289
RRIRFRPPRLPRPRPRPKAPPRP	0.453
RRIRWRPPRLPRPRPRPSFNPRP	-0.365
RRIRFRPPRLPRPRPRPFYPPRP	-0.824
RRIRMRPPRLPRPRPRPTEWPRP	0.555
RRIRRRPPRLPRPRPRPFKLPRP	-0.0153
RRIRIRPPRLPRPRPRPNCVPRP	-0.376
RRIRQRPPRLPRPRPRPQMQPRP	0.131
RRIRLRPPRLPRPRPRPSHLPRP	-0.491

Sequence	shrunken log2 fold change
RRIRWRPPRLPRPRPRPEFYPRP	-0.129
RRIRVRPPRLPRPRPRPMRVPRP	0.0609
RRIRGRPPRLPRPRPRPYSKPRP	-0.2
RRIRDRPPRLPRPRPRPVTEPRP	0.0911
RRIRLRPPRLPRPRPRPITHPRP	-0.24
RRIRGRPPRLPRPRPRPMQEPRP	0.161
RRIRCRPPRLPRPRPRPIWTPRP	-0.0919
RRIRNRPPRLPRPRPRPVCGPRP	0.0972
RRIRGRPPRLPRPRPRPAADPRP	2.21
RRIRGRPPRLPRPRPRPARPPRP	0.63
RRIRSRPPRLPRPRPRPDYVPRP	0.063
RRIRARPPRLPRPRPRPHSLPRP	0.314
RRIRNRPPRLPRPRPRPSRSPRP	-0.076
RRIRIRPPRLPRPRPRPGPMPRP	0.0608
RRIRKRPPRLPRPRPRPLDFPRP	0.188
RRIRLRPPRLPRPRPRPGMNPRP	-0.72
RRIRKRPPRLPRPRPRPNEVPRP	-0.152
RRIRRRPPRLPRPRPRPCCIPRP	-0.179
RRIRVRPPRLPRPRPRPTFTPRP	-0.073
RRIRERPPRLPRPRPRPDNEPRP	-0.0338
RRIRNRPPRLPRPRPRPFWTPRP	-0.132
RRIRWRPPRLPRPRPRPFLYPRP	-0.0978
RRIRRRPPRLPRPRPRPVIDPRP	-0.165
RRIRKRPPRLPRPRPRPWTCPRP	-0.0961
RRIRTRPPRLPRPRPRPVDLPRP	-0.0153

Sequence	shrunken log2 fold change
RRIRERPPRLPRPRPRPMIKPRP	-1.07
RRIRLRPPRLPRPRPRPTFMPRP	-0.305
RRIRGRPPRLPRPRPRPGEMPRP	1.31
RRIRPRPPRLPRPRPRPHGVPRP	-0.104
RRIRNRPPRLPRPRPRPEHWPRP	-0.0343
RRIRNRPPRLPRPRPRPCFSPRP	-0.378
RRIRVRPPRLPRPRPRPKMRPRP	0.329
RRIRYRPPRLPRPRPRPCFIPRP	-0.321
RRIRVRPPRLPRPRPRPHNYPRP	-0.181
RRIRCRPPRLPRPRPRPCAAPRP	0.514
RRIRIRPPRLPRPRPRPRAEPRP	-0.202
RRIRKRPPRLPRPRPRPSPSPRP	0.452
RRIRVRPPRLPRPRPRPMNHPRP	-0.194
RRIRNRPPRLPRPRPRPKFKPRP	-0.508
RRIRYRPPRLPRPRPRPIFVPRP	-0.418
RRIRARPPRLPRPRPRPSCFPRP	0.0871
RRIRWRPPRLPRPRPRPDMVPRP	0.0298
RRIRGRPPRLPRPRPRPTWYPRP	0.159
RRIRWRPPRLPRPRPRPGDYPRP	0.0468
RRIRPRPPRLPRPRPRPYTFPRP	-0.504
RRIRKRPPRLPRPRPRPPVGPRP	1.04
RRIRNRPPRLPRPRPRPTKVPRP	-0.153
RRIRLRPPRLPRPRPRPEENPRP	-0.00256
RRIRWRPPRLPRPRPRPFMHPRP	-0.153
RRIRYRPPRLPRPRPRPEHQPRP	-0.464

Sequence	shrunken log2 fold change
RRIRCRPPRLPRPRPRPNPWPRP	0.017
RRIRLRPPRLPRPRPRPEVTPRP	-0.046
RRIRWRPPRLPRPRPRPNDDPRP	0.0584
RRIRERPPRLPRPRPRPMWIPRP	-0.102
RRIRERPPRLPRPRPRPYRCPRP	-0.0874
RRIRHRPPRLPRPRPRPMVHPRP	0.00748
RRIRYRPPRLPRPRPRPFENPRP	-0.257
RRIRCRPPRLPRPRPRPDHRPRP	-0.106
RRIRQRPPRLPRPRPRPYTSPRP	-0.0321
RRIRYRPPRLPRPRPRPKHAPRP	-0.0577
RRIRARPPRLPRPRPRPLGEPRP	0.896
RRIRQRPPRLPRPRPRPHEWPRP	0.114
RRIRWRPPRLPRPRPRPLDHPRP	0.165
RRIRLRPPRLPRPRPRPFGPPRP	0.0996
RRIRHRPPRLPRPRPRPFEHPRP	-0.0952
RRIRWRPPRLPRPRPRPKGWPRP	0.845
RRIRERPPRLPRPRPRPTLTPRP	-0.0194
RRIRTRPPRLPRPRPRPDEIPRP	-0.235
RRIRDRPPRLPRPRPRPCQGPRP	0.028
RRIRWRPPRLPRPRPRPRQQPRP	-0.0369
RRIRLRPPRLPRPRPRPQYTPRP	-0.909
RRIRERPPRLPRPRPRPTSTPRP	-0.319
RRIRGRPPRLPRPRPRPLQSPRP	0.746
RRIRSRPPRLPRPRPRPWMKPRP	-0.00765
RRIRQRPPRLPRPRPRPKNTPRP	-0.394

Sequence	shrunken log2 fold change
RRIRLRPPRLPRPRPRPPHVPRP	0.989
RRIRHRPPRLPRPRPRPPSWPRP	0.393
RRIRHRPPRLPRPRPRPMHYPRP	-0.289
RRIRFRPPRLPRPRPRPHPYPRP	0.0415
RRIRYRPPRLPRPRPRPGDIPRP	-0.0107
RRIRCRPPRLPRPRPRPVLYPRP	-0.432
RRIRNRPPRLPRPRPRPRRTPRP	0.135
RRIRSRPPRLPRPRPRPMVRPRP	0.00927
RRIRLRPPRLPRPRPRPSHEPRP	0.031
RRIRIRPPRLPRPRPRPHSKPRP	-0.677
RRIRKRPPRLPRPRPRPMHKPRP	0.351
RRIRARPPRLPRPRPRPPCGPRP	0.443
RRIRTRPPRLPRPRPRPPHMPRP	-0.101
RRIRPRPPRLPRPRPRPNMNPRP	-0.584
RRIRQRPPRLPRPRPRPEIPPRP	-0.0704
RRIRWRPPRLPRPRPRPMCVPRP	0.0501
RRIRLRPPRLPRPRPRPDNKPRP	-0.357
RRIRVRPPRLPRPRPRPMEVPRP	-0.997
RRIRTRPPRLPRPRPRPENEPRP	0.138
RRIRTRPPRLPRPRPRPTNYPRP	-0.857
RRIRDRPPRLPRPRPRPDCCPRP	-0.0205
RRIRKRPPRLPRPRPRPCDAPRP	0.0682
RRIRERPPRLPRPRPRPILLPRP	-0.336
RRIRHRPPRLPRPRPRPFTDPRP	-0.1
RRIRMRPPRLPRPRPRPHNFPRP	-0.0303

Sequence	shrunken log2 fold change
RRIRRRPPRLPRPRPRPTPGPRP	1.11
RRIRKRPPRLPRPRPRPQMDPRP	0.618
RRIRTRPPRLPRPRPRPMDIPRP	-0.00738
RRIRPRPPRLPRPRPRPMAHPRP	-0.165
RRIRGRPPRLPRPRPRPPLSPRP	0.897
RRIRKRPPRLPRPRPRPKDQPRP	0.619
RRIRARPPRLPRPRPRPQHGPRP	-0.265
RRIRARPPRLPRPRPRPKLWPRP	1
RRIRYRPPRLPRPRPRPYAQPRP	-1.36
RRIRNRPPRLPRPRPRPSLWPRP	0.159
RRIRTRPPRLPRPRPRPPPYPRP	-0.000222
RRIRRRPPRLPRPRPRPLWTPRP	0.129
RRIRARPPRLPRPRPRPYGNPRP	-0.0109
RRIRARPPRLPRPRPRPETMPRP	0.0902
RRIRARPPRLPRPRPRPEIQPRP	1.71
RRIRWRPPRLPRPRPRPPCPPRP	0.138
RRIRNRPPRLPRPRPRPRFQPRP	0.0932
RRIRYRPPRLPRPRPRPDKMPRP	-0.0477
RRIRNRPPRLPRPRPRPACIPRP	0.0248
RRIRPRPPRLPRPRPRPNFQPRP	-0.00527
RRIRKRPPRLPRPRPRPPETPRP	0.651
RRIRERPPRLPRPRPRPTQRPRP	0.0475
RRIRWRPPRLPRPRPRPAKSPRP	0.228
RRIRLRPPRLPRPRPRPEHNPRP	-0.204
RRIRYRPPRLPRPRPRPLQSPRP	0.00494
